From the supplement of paper PMC7125110 come the findings set out here.

± gives the standard error. This sample holds only a part of the variants without activity. Some results are limits rather than exact numbers.

The chains are these.
B1: glmS ribozyme (parent)
chain: AUAAAAGCGCCAGAACUACAGAAAUGUAGUUGACGAGGAGGAGGUUUAUCGAAUUUUCGGCGGAUGCCUCCAAA

Common to all, as to conditions: with glucosamine-6-phosphate
The variants in data set [1] derive from B1. The experiment in a line: self-cleavage kobs at 640 uM GlcN6P; higher = faster cleavage; RNA array. The essentials:
(§1)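 Tiles bearing barcoded ribozyme variants, transcribed in situ by E. coli RNA polymerase on sequenced MiSeq chips, were imaged over ~14 h at 37 °C using a hybridised Cy3 probe. Glucosamine-6-phosphate was supplied at 40 μM to 10 mM in HEPES/KCl/Mg(OAc)2 buffer. kobs came from one- or two-exponential decay fits to normalised per-tile medians, and weighted Michaelis–Menten fits then provided kcat and KM.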

Data set [2] covers variants of B1. The experiment in a line: self-cleavage kobs at 10000 uM GlcN6P; higher = faster cleavage; RNA array. The essentials:
as §1

Data set [3] covers variants of B1. The experiment in a line: self-cleavage kobs at 2500 uM GlcN6P; higher = faster cleavage; RNA array. Summed up:
as §1

In the case of C10G A15C, in data set [1], the “self-cleavage kobs at 640 uM GlcN6P” value was less than 1e-05 s⁻¹. Further, the “self-cleavage kobs at 10000 uM GlcN6P” value in data set [2] was less than 1e-05 s⁻¹.
For A33C G41A A53U, the “self-cleavage kobs at 640 uM GlcN6P” value in data set [1] was less than 1e-05 s⁻¹.
For G7A G38C G59C, the “self-cleavage kobs at 640 uM GlcN6P” value in data set [1] is less than 1e-05 s⁻¹.
As to A15G A36U U45G U46G A64G, in data set [1], the “self-cleavage kobs at 640 uM GlcN6P” value was less than 1e-05 s⁻¹.
As for G13A G32C G43C C68G, the “self-cleavage kobs at 640 uM GlcN6P” value in data set [1] is 7.7e-05 ± 2.2e-05 s⁻¹. In data set [3], the “self-cleavage kobs at 2500 uM GlcN6P” value turned out to be 0.000154 ± 5e-05 s⁻¹.
Regarding G7C C34A A42C C71U, in data set [1], the “self-cleavage kobs at 640 uM GlcN6P” value is less than 1e-05 s⁻¹.
For G35A A48C U54A C70A, in data set [1], the “self-cleavage kobs at 640 uM GlcN6P” value was less than 1e-05 s⁻¹. Further, in data set [2], the “self-cleavage kobs at 10000 uM GlcN6P” value was less than 1e-05 s⁻¹.
Regarding G13U U30A A53G, the “self-cleavage kobs at 640 uM GlcN6P” value in data set [1] was found to be 5.33e-05 ± 1.9e-05 s⁻¹. In addition, the “self-cleavage kobs at 10000 uM GlcN6P” value in data set [2] worked out at 4.23e-05 ± 1.5e-05 s⁻¹.
C10U A14U G32A A42C: the “self-cleavage kobs at 640 uM GlcN6P” value in data set [1] was less than 1e-05 s⁻¹.
As for A12C G44U, the “self-cleavage kobs at 640 uM GlcN6P” value in data set [1] is 9.03e-05 ± 1.7e-05 s⁻¹. The “self-cleavage kobs at 2500 uM GlcN6P” value in data set [3] amounted to 8.38e-05 ± 2.6e-05 s⁻¹. Further, the “self-cleavage kobs at 10000 uM GlcN6P” value in data set [2] was found to be 0.000382 ± 5.4e-05 s⁻¹.
As for A33C G35C U56C C67U, in data set [1], the “self-cleavage kobs at 640 uM GlcN6P” value is less than 1e-05 s⁻¹.
With G9U G32C A42G U45G, in data set [1], the “self-cleavage kobs at 640 uM GlcN6P” value is less than 1e-05 s⁻¹. Also, the “self-cleavage kobs at 2500 uM GlcN6P” value in data set [3] was less than 1e-05 s⁻¹.
As to C34A U46C A53G G60C C61A, the “self-cleavage kobs at 640 uM GlcN6P” value in data set [1] is less than 1e-05 s⁻¹. Besides, the “self-cleavage kobs at 2500 uM GlcN6P” value in data set [3] is less than 1e-05 s⁻¹.
With A12C A14G C34G G38U U49G A64G, the “self-cleavage kobs at 640 uM GlcN6P” value in data set [1] was less than 1e-05 s⁻¹. Besides, the “self-cleavage kobs at 2500 uM GlcN6P” value in data set [3] is less than 1e-05 s⁻¹.
As for G7A G32C G51U, in data set [1], the “self-cleavage kobs at 640 uM GlcN6P” value is less than 1e-05 s⁻¹.
With U30A U31C A39U, the “self-cleavage kobs at 640 uM GlcN6P” value in data set [1] came out at 0.00038 ± 0.00011 s⁻¹. Besides, in data set [3], the “self-cleavage kobs at 2500 uM GlcN6P” value worked out at 0.000577 ± 0.00018 s⁻¹.
Regarding U17G G62U, the “self-cleavage kobs at 640 uM GlcN6P” value in data set [1] was less than 1e-05 s⁻¹.
In the case of A42C C61G C70A, the “self-cleavage kobs at 640 uM GlcN6P” value in data set [1] is less than 1e-05 s⁻¹. In data set [3], the “self-cleavage kobs at 2500 uM GlcN6P” value is less than 1e-05 s⁻¹. Also, in data set [2], the “self-cleavage kobs at 10000 uM GlcN6P” value was less than 1e-05 s⁻¹.
As for G59U G62A, the “self-cleavage kobs at 640 uM GlcN6P” value in data set [1] was less than 1e-05 s⁻¹. Moreover, the “self-cleavage kobs at 10000 uM GlcN6P” value in data set [2] is less than 1e-05 s⁻¹.
Regarding G43A A48G A53U G62C, the “self-cleavage kobs at 640 uM GlcN6P” value in data set [1] was less than 1e-05 s⁻¹.
In the case of U57C C61U G63A, the “self-cleavage kobs at 640 uM GlcN6P” value in data set [1] was less than 1e-05 s⁻¹. The “self-cleavage kobs at 2500 uM GlcN6P” value in data set [3] is less than 1e-05 s⁻¹. Also, the “self-cleavage kobs at 10000 uM GlcN6P” value in data set [2] is less than 1e-05 s⁻¹.
Take C8A C11A G37U G41C A53C G63C: in data set [1], the “self-cleavage kobs at 640 uM GlcN6P” value was less than 1e-05 s⁻¹. The “self-cleavage kobs at 2500 uM GlcN6P” value in data set [3] is less than 1e-05 s⁻¹.
In the case of A6U U54C C68G U69G, the “self-cleavage kobs at 640 uM GlcN6P” value in data set [1] is 0.00033 ± 9.7e-05 s⁻¹.
G29C G41C C68G: in data set [1], the “self-cleavage kobs at 640 uM GlcN6P” value was less than 1e-05 s⁻¹. For the same variant, the “self-cleavage kobs at 2500 uM GlcN6P” value in data set [3] is less than 1e-05 s⁻¹. In data set [2], the “self-cleavage kobs at 10000 uM GlcN6P” value is less than 1e-05 s⁻¹.
Turning to G13C A14C C71U, the “self-cleavage kobs at 640 uM GlcN6P” value in data set [1] turned out to be 4.16e-05 ± 1.1e-05 s⁻¹. In addition, the “self-cleavage kobs at 2500 uM GlcN6P” value in data set [3] amounted to 0.000105 ± 1.7e-05 s⁻¹.
In the case of A15G U31A U47G, the “self-cleavage kobs at 640 uM GlcN6P” value in data set [1] worked out at 0.000471 ± 0.00011 s⁻¹. Further, the “self-cleavage kobs at 2500 uM GlcN6P” value in data set [3] worked out at 0.00142 ± 0.0005 s⁻¹.
On to A12U C58U C61G G62C A64G U65A G66U C67G U69C C70U, for which the “self-cleavage kobs at 640 uM GlcN6P” value in data set [1] stood at 7.34e-05 ± 2.4e-05 s⁻¹. Besides, the “self-cleavage kobs at 2500 uM GlcN6P” value in data set [3] was determined as 7.58e-05 ± 1.9e-05 s⁻¹.
For the variant C11U G43A A48U A53C C61U, the “self-cleavage kobs at 640 uM GlcN6P” value in data set [1] is less than 1e-05 s⁻¹. Also, the “self-cleavage kobs at 2500 uM GlcN6P” value in data set [3] was less than 1e-05 s⁻¹.
For A6U G37A U55G C71G, in data set [1], the “self-cleavage kobs at 640 uM GlcN6P” value is less than 1e-05 s⁻¹. Besides, the “self-cleavage kobs at 10000 uM GlcN6P” value in data set [2] was less than 1e-05 s⁻¹.
As to A36U A39G C67G, the “self-cleavage kobs at 2500 uM GlcN6P” value in data set [3] was less than 1e-05 s⁻¹.
